Test results from patent publication US20240158472A1, “FERRITIN VARIANTS WITH INCREASED STABILITY AND COMPLEXATION ABILITY” (Cellis AG, priority 2021, published 2024).

How the values were obtained:
[1] = Native gel after storage in freezer (-80 degrees Celsius) and thawing; type: physicochemical; settings: ferritin cages with doxorubicin, mutants of b203
[2] = Native PAGE gel after doxorubicin encapsulation and purification; type: physicochemical; settings: after doxorubicin encapsulation; mutants carry added K54E, K72E, K87Q, K144E, C91S, C103S
Text: Native PAGE gel has been performed in order to check the size of the protein after encapsulation and purification.

[3] = tested on: MDA-MB 231, Skov3 and 4T1; test: Tumour cell viability after 72 h co-culture with macrophages carrying doxorubicin packed ferritin; type: cell-based; settings: ferritin cages filled with doxorubicin 1 mg/ml
Description: FIG. 7: Graphs of tumour cell viability after 72 h co-culture with macrophages. The concentration of ferritin cages filled with doxorubicin was the same for each variant of ferritin and was equal to 1 mg/ml.
The doxorubicin packed proteins were inserted into macrophages and then co-cultured with breast and ovarian cancer cell lines: MDA-MB 231, Skov3 and 4T1. The number of viable cells after co-culture was the lowest for the Q11E-Q15E mutant (FIG. 7).

B1: Q11E-Q15E mutant: Examples 3-8 ferritin variant based on Q11E-Q15E with added K54E, K72E, K87Q, K144E, C91S and C103S (protein, UniProt P02794 1-183, looked up, variant Q11E Q15E K54E K72E K87Q K144E C91S C103S)
Ferritin heavy chain: MTTASTSQVRENYHEDSEAAINRQINLELYASYVYLSMSYYFDRDDVALKNFAEYFLHQSHEEREHAEKLMELQNQRGGRIFLQDIQKPDSDDWESGLNAMESALHLEKNVNQSLLELHKLATDKNDPHLCDFIETHYLNEQVEAIKELGDHVTNLRKMGAPESGLAEYLFDKHTLGDSDNES
modifications: doxorubicin-loaded form also
[1]
  aggregation of cages after storage: still present as 24-mers (homogeneous cages) after storage
[2]
  forms on native gel (aggregates versus 24-mers): present as 24-mers (homogeneous cages)
[3]
  number of viable cells after co-culture: lowest
